This experiment concerns the target Gloeobacter violaceus deeply-rooted thioredoxin reductase (GvDTR), renamed ferredoxin flavin-thioredoxin reductase (GvFFTR) (Gloeobacter violaceus) (UniProt Q7NMP6). Kind of experiment: ITC.

As to “Gloeobacter violaceus plant-type [2Fe-2S] ferredoxin 1 (GvFdx1) (natural protein)”, the stoichiometry N – broadly, a count of units in the complex or per binding partner – amounted to 1.

Source of the values: publication PMC8154056.
